Laboratory results as given in patent publication US20150175678A1 (BETH ISRAEL DEACONESS MEDICAL CENTER, published 2015).

Tests used:
[1] = biological target: HIV-1 67970 (Clade B, X4) envelope glycoprotein gp120 (HIV-1, isolate 67970); test: cell-based or functional assay
[2] = biological target: HIV-1 JR-FL (Clade B, R5) envelope glycoprotein gp120 (HIV-1, isolate JR-FL); test: cell-based or functional assay

B1: F425-A1g8 IgA1 antibody variant expressed from CHO-K1 cells (antibody)
heavy: QEQLVESGGGVVQPGRSLRLSCEASGFIFSAFVLHWVRQAPGKGLEWVAVVWYDGNSKYYADSVKGRFTISRDTSQNTLHLQMDSLRPEDTAVYYCAREWVADDDTFDGFDVWGQGTMVTVSSASLTSPKVFPLSLCSTQPDGNVVIACLVQGFFPQEPLSVTWSESGQGVTARNFPPSQDASGDLYTTSSQLTLPATQCLAGKSVTCHVKHYTNPSQDVTVPCPVPSTPPTPSPSTPPTPSPSCCHPRLSLHRPALEDLLLGSEANLTCTLTGLRDASGVTFTWTPSSGKSAVQGPPDRDLCGCYSVSSVLSGCAEPWNHGKTFTCTAAYPESKTPLTATLSKSGNTFRPEVHLLPPPSEELALNELVTLTCLARGFSPKDVLVRWLQGSQELPREKYLTWASRQEPSQGTTTFAVTSILRVAAEDWKKGDTFSCMVGHEALPLAFTQKTIDRLAGKPTHVNVSVVMAEVDGTCY
light: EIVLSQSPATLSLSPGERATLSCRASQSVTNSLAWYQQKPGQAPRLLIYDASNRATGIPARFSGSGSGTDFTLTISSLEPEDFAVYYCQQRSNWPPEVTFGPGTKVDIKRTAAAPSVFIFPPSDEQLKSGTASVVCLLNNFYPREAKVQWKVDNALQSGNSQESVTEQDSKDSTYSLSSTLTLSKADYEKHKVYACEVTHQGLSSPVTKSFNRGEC
[1]
  Neutralization of HIV-1, IC50 (TZM-bl cells, beta-galactosidase): 23.3 µg/mL
[2]
  Neutralization of HIV-1, IC50 (TZM-bl cells, beta-galactosidase): 1.73 µg/mL
